In test [1] the target is full-length recombinant fascin, thioredoxin fusion protein (mouse, UniProt Q61553 1-493). The test can be described thus: co-IP.
For test [2], the target named is T1, recombinant full-length (His)6-tagged Xenopus beta-catenin (Xenopus, UniProt P26233 1-781).
T1 sequence (looked up): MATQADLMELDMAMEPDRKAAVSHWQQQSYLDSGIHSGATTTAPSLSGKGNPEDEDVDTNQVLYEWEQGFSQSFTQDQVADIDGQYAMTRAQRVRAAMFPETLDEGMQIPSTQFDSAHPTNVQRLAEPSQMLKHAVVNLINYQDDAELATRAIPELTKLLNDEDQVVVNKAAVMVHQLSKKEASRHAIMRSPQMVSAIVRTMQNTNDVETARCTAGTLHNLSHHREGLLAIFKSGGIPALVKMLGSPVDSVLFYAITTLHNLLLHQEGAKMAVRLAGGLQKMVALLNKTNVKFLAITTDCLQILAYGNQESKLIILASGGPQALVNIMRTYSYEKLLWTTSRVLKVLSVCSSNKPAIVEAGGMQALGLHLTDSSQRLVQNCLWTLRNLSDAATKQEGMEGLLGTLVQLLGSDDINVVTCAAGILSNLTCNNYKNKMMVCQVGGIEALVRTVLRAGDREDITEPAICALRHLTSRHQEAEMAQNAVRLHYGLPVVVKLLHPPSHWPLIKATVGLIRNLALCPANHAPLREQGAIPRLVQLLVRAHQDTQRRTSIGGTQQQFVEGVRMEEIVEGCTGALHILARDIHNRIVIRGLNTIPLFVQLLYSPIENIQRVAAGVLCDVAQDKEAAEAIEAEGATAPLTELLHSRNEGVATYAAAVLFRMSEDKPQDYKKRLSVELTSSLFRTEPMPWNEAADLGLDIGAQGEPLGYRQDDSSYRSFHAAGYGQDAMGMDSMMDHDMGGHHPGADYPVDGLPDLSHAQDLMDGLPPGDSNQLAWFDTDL
The test can be described thus: co-IP.

The values that follow come from paper PMC2120989 (The Journal of Cell Biology, 1996).

B1: GST fusion protein of the Armadillo repeat region of beta-catenin (amino acid residues 167-583) (domain or fragment)
chain: VVNKAAVMVHQLSKKEASRHAIMRSPQMVSAIVRTMQNTNDVETARCTAGTLHNLSHHREGLLAIFKSGGIPALVKMLGSPVDSVLFYAITTLHNLLLHQEGAKMAVRLAGGLQKMVALLNKTNVKFLAITTDCLQILAYGNQESKLIILASGGPQALVNIMRTYSYEKLLWTTSRVLKVLSVCSSNKPAIVEAGGMQALGLHLTDSSQRLVQNCLWTLRNLSDAATKQEGMEGLLGTLVQLLGSDDINVVTCAAGILSNLTCNNYKNKMMVCQVGGIEALVRTVLRAGDREDITEPAICALRHLTSRHQEAEMAQNAVRLHYGLPVVVKLLHPPSHWPLIKATVGLIRNLALCPANHAPLREQGAIPRLVQLLVRAHQDTQRRTSIGGTQQQFVEGVRMEEIVEGCTGALHILARD
In the case of B1, the binding result in test [1] was “binds”.

B2: GST-E-cadherin fusion protein, cytoplasmic domain (residues 734-884) of mouse E-cadherin (domain or fragment)
chain: not shown
On to B2, for which the binding result in test [2] is “binds”.
